{"source": "patent US20230227538A1", "about": "(University of California, published 2023)", "binders": {"B1": {"name": "mNb6-tri (trivalent mNb6 with a 20 amino acid linker) (VHH)", "chain": "QVQLVESGGGLVQAGGSLRLSCAASGYIFGRNAMGWYRQAPGKERELVAGITRRGSITYYADSVKGRFTISRDNAKNTVYLQMNSLKPEDTAVYYCAADPASPAYGDYWGQGTQVTVSSGGGGSGGGGSGGGGSGGGGSQVQLVESGGGLVQAGGSLRLSCAASGYIFGRNAMGWYRQAPGKERELVAGITRRGSITYYADSVKGRFTISRDNAKNTVYLQMNSLKPEDTAVYYCAADPASPAYGDYWGQGTQVTVSSGGGGSGGGGSGGGGSGGGGSQVQLVESGGGLVQAGGSLRLSCAASGYIFGRNAMGWYRQAPGKERELVAGITRRGSITYYADSVKGRFTISRDNAKNTVYLQMNSLKPEDTAVYYCAADPASPAYGDYWGQGTQVTVSS"}, "B2": {"name": "Nb6-tri (trivalent Nb6 with two 20 amino acid linkers) (VHH)", "chain": "B1 chain with Y27I, Y105P, Y166I, Y244P, Y305I, Y383P"}, "B3": {"name": "Nb6 (AeroNab6, NbCOV6, clone pNbCOV006A) (VHH)", "VHH": "QVQLVESGGGLVQAGGSLRLSCAASGIIFGRNAMGWYRQAPGKERELVAGITRRGSITYYADSVKGRFTISRDNAKNTVYLQMNSLKPEDTAVYYCAADPASPAPGDYWGQGTQVTVSS", "notes": "also called AeroNab6 MASC monomer; Parent clone (NbCOV6)"}, "B4": {"name": "Nb11 (clone pNbCOV011A) (VHH)", "VHH": "HVQLVESGGGLVQAGGSLRLSCAVSGASAERVGWFRRAPGKEREFVAAIGANGGSTNYLDSVKGRFTISRDNAKNTVYLQMNSLKPQDTAVYYCAARNLETFDYTYWGRGTQVTVSS"}}, "key": {"[1]": {"molecular_target": "SARS-CoV-2 Spike protein on pseudotyped lentivirus (SARS-CoV-2, UniProt P0DTC2 14-1273)", "assay": "cell-based or functional assay"}, "[2]": {"molecular_target": "T1, SARS-CoV-2 Spike receptor binding domain (RBD) (SARS-CoV-2, UniProt P0DTC2 319-541)"}, "[3]": {"molecular_target": "T1, SARS-CoV-2 Spike receptor binding …", "assay": "SPR, biotinylated RBD on a CAP chip"}, "[4]": {"molecular_target": "SARS-CoV-2 Spike protein on pseudotyped lentivirus (SARS-CoV-2, UniProt P0DTC2 14-1273)", "assay": "cell-based or functional assay", "remark": "listed apart in the source"}}, "note": "Changes are numbered by the printed parent chain. Several values for one entry are separate records, joined by “and”; a condition that tells them apart may be missing. Equal values may be shown once.", "data": [{"binder": "B1", "values": [{"measurement": "IC50, pseudovirus infection assay", "setting": "[1]", "value": "120 pM and 5 ng/mL"}]}, {"binder": "B2", "values": [{"measurement": "IC50, inhibition of pseudovirus infection of ACE2 expressing HEK293T cells", "setting": "[1]", "value": 1.2, "unit": "nM"}, {"measurement": "fold enhancement of inhibitory activity against Nb6, pseudovirus", "setting": "[1]", "value": 2000, "unit": "fold"}]}, {"binder": "B3", "values": [{"measurement": "IC50, inhibition of pseudovirus infection of ACE2 expressing HEK293T cells", "setting": "[1]", "value": 2000, "unit": "nM"}, {"measurement": "EC50", "setting": "[2]", "value": 190, "unit": "nM"}, {"measurement": "Kd", "setting": "[3]", "value": 41, "unit": "nM"}]}, {"binder": "B4", "values": [{"measurement": "IC50, inhibition of pseudovirus infection of ACE2 expressing HEK293T cells", "setting": "[4]", "value": 2400, "unit": "nM"}]}]}
